Source: patent US20120129768A1

Target: Glucagon-like peptide-1 receptor (GLP1R)
Assay: cell-based or functional assay

Liraglutide (peptide), sequence (peptide): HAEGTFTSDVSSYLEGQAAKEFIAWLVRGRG

Liraglutide (peptide)
Maximum reaction rate (%): 96.8%
